Assay results: US8158851B2, “Transgenic high tryptophan plants” (Monsanto Technology LLC, priority 2002, dated 2012)
Read-outs that look alike come from different tables or passages of the source.

Tests used:
[1] = tested on: soy seed; assay: Free amino acid analysis of soy seed (tryptophan content); format: in vivo, Glycine max; settings: R1 soy seeds expressing the mutant protein
Procedure: Amino Acid Extraction: About 50 mg of crushed soy seed (5 mg of Arabidopsis) material was placed in each centrifuge vial. One milliliter of 5% trichloroacetic acid was added to each sample (100 μl for Arabidopsis). The samples were vortexed, and allowed to sit, with agitation, at room temperature for 15 min. They were then microcentrifuged for 15 min at 14000 rpm. Some of the supernatant was then removed, placed in a HPLC vial and sealed. Samples were kept at 4° C. in the analysis queue.
Amino Acid Analysis: The reagents utilized for amino acid analysis included the OPA reagent (o-phthalaldehyde and 3-mercaptopropionic acid in borate buffer (Hewlett-Packard, PN 5061-3335)) where the borate buffer (0.4 N in water, pH 10.2). The analysis was performed using the Agilent 1100 series HPLC system as described in the Agilent Technical Publication, “Amino Acid Analysis Using Zorbax Eclipse-AAA Columns and the Agilent 1100 HPLC”, Mar. 17, 2000. First, 0.5 μl of the sample was derivatized with 2.5 μl of OPA reagent in 10 μl of borate buffer. Second, the derivative is injected onto a Eclipse XDB-C18 5 μm, 4.6×150 mm column using a flow rate of 1.2 ml/min. Amino acid concentrations were measured using fluorescence: excitation at 340 nm, emission at 450 nm. Elution was with a gradient of HPLC Buffers A and B according to Table A, where HPLC Buffer A was 40 mM Na2HPO4, pH=7.8 and HPLC Buffer B was 9:9:2::Methanol:Acetonitrile:Water.
Amino acid standards were prepared from the dry chemicals, using all amino acids of interest. Proline analysis required an additional derivatization step with 9-fluorenylmethyl-chloroformate (FMOC). Amino acid standards were also sometimes purchased in concentrations ranging from 0 to 100 μg/ml. Samples were reported in μg/g of seed powder.
Mature R1 seed is produced and analyzed for free amino acid content using fluorescence detection as described in Agilent Technologies Technical Bulletin REV14. Five seeds are chosen for single seed analysis from each event. […] The highest levels of tryptophan have a negative impact on germination.

[2] = tested on: Agrobacterium tumefaciens AS; assay: Anthranilate synthase enzyme assay and kinetic analysis of purified enzymes; format: biochemical; settings: for Km: 25° C.
Procedure: Agrobacterium tumefaciens AS wild type and mutant enzymes were expressed in E. coli as described in Example 1. The purification of all the Agrobacterium tumefaciens AS enzymes, including wild type and mutants thereof, was performed at 4° C. The cells (approximate wet weight of 1 g) were suspended in 20 ml of purification buffer (50 mM potassium phosphate, pH 7.3, 10 mM MgCl2, 10 mM 2-mercaptoethanol, 10% glycerol) and lysed by ultrasonication (Branson sonifier Cell Disruptor, W185). Supernatant was collected after centrifugation of the homogenate at 20,000×g for 15 min. The supernatant was subjected to ammonium sulfate fractionation (30 to 65% saturation). The precipitate was collected after centrifugation at 20,000×g for 15 min and dissolved in 3 ml of the purification buffer and then loaded as a whole on an Econo-Pac 10DG desalting column, pre-equilibrated with the same buffer. Fractions containing the enzyme were detected by the developed assay and pooled. The pooled enzyme (4.3 mls) was loaded on a 10 ml DEAF Sephacel (Pharmacia Biotech) column (1.5×7.5 cm) equilibrated with the same buffer. The column was washed with 30 ml of the purification buffer and the enzyme was eluted with 30 ml of 50 mM NaCl in the same buffer. Fractions containing high AS activity were pooled and precipitated by 65% ammonium sulfate saturation and isolated and desalted as above. Fractions containing the enzyme were pooled and stored at −80° C.
The standard assay for Agrobacterium tumefaciens AS was performed at 25° C. in an assay buffer containing 100 mM potassium phosphate, pH 7.0, 10 mM MgCl2, 1 mM dithiothreitol, 200 μM chorismate and 10 mM L-glutamine. The reaction was started by adding 30 μl of enzyme to the reaction mixture and mixing. The formation of anthranilate was directly monitored by the absorbance increase at 320 m for 3 minutes. Initial rate of reaction was calculated as unit absorbance increase per second based on the slope of the absorbance change over the reaction time. Km for chorismate (Km^Cho) was determined in the total volume of 1 ml assay buffer containing 100 mM potassium phosphate, pH 7.0, 10 mM MgCl2, 1 mM dithiothreitol with 10 mM L-glutamine and varying the concentration of chorismate between 2.5-100 μM chorismate. The Km for glutamine (Km^Gln) was determined in the total volume of 1 ml assay buffer containing 100 mM potassium phosphate, pH 7.0, 10 mM MgCl2, 1 mM dithiothreitol with 200 μM chorismate and varying the concentration of L-glutamine between 0.1-2 mM L-glutamine. IC50 for tryptophan (IC50^Trp) was determined with in the total volume of 1 ml assay buffer containing 100 mM potassium phosphate, pH 7.0, 10 mM MgCl2, 1 mM dithiothreitol, 10 mM L-glutamine, 200 μM chorismate and varying the concentration of L-tryptophan between 0.1-10 mM L-tryptophan. Kinetic parameters and IC50 of AS were calculated after fitting the data to a non-linear regression program (GraFit).

B1: V48F (protein)
chain: MVTIIQDDGAETYETKGGIQVSRKRRPTDYANAIDNYIEKLDSHRGAFFSSNYEYPGRYTRWDTAIVDPPLGISCFGRKMWIEAYNGRGEVLLDFITEKLKATPDLTLGASSTRRLDLTVNEPDRVFTEEERSKIPTVFTALRAIVDLFYSSADSAIGLFGAFGYDLAFQFDAIKLSLARPEDQRDMVLFLPDEILVVDHYSAKAWIDRYDFEKDGMTTDGKSSDITPDPFKTTDTIPPKGDHRPGEYSELVVKAKESFRRGDLFEVVPGQKFMERCESNPSAISRRLKAINPSPYSFFINLGDQEYLVGASPEMFVRVSGRRIETCPISGTIKRGDDPIADSEQILKLLNSKKDESELTMCSDVDRNDKSRVCEPGSVKVIGRRQIEMYSRLIHTVDHIEGRLRDDMDAFDGFLSHAWAVTVTGAPKLWAMRFIEGHEKSPRAWYGGAIGMVGFNGDMNTGLTLRTIRIKDGIAEVRAGATLLNDSNPQEEEAETELKASAMISAIRDAKGTNSAATKRDAAKVGTGVKILLVDHEDSFVHTLANYFRQTGATVSTVRSPVAADVFDRFQPDLVVLSPGPGSPTDFDCKATIKAARARDLPIFGVCLGLQALAEAYGGELRQLAVPMHGKPSRIRVLEPGLVFSGLGKEVTVGRYHSIFADPATLPRDFIITAESEDGTIMGIEHAKEPVAAVQFHPESIMTLGQDAGMRMIENVVVHLTRKAKTKAA
modifications: An A. tumefaciens mutant.
**Q.** With B1 as the molecule, how does the amounts of tryptophan [1] read?
**A.** Its amounts of tryptophan is “very high amounts of tryptophan”.

B2: V48Y (protein)
chain: MVTIIQDDGAETYETKGGIQVSRKRRPTDYANAIDNYIEKLDSHRGAYFSSNYEYPGRYTRWDTAIVDPPLGISCFGRKMWIEAYNGRGEVLLDFITEKLKATPDLTLGASSTRRLDLTVNEPDRVFTEEERSKIPTVFTALRAIVDLFYSSADSAIGLFGAFGYDLAFQFDAIKLSLARPEDQRDMVLFLPDEILVVDHYSAKAWIDRYDFEKDGMTTDGKSSDITPDPFKTTDTIPPKGDHRPGEYSELVVKAKESFRRGDLFEVVPGQKFMERCESNPSAISRRLKAINPSPYSFFINLGDQEYLVGASPEMFVRVSGRRIETCPISGTIKRGDDPIADSEQILKLLNSKKDESELTMCSDVDRNDKSRVCEPGSVKVIGRRQIEMYSRLIHTVDHIEGRLRDDMDAFDGFLSHAWAVTVTGAPKLWAMRFIEGHEKSPRAWYGGAIGMVGFNGDMNTGLTLRTIRIKDGIAEVRAGATLLNDSNPQEEEAETELKASAMISAIRDAKGTNSAATKRDAAKVGTGVKILLVDHEDSFVHTLANYFRQTGATVSTVRSPVAADVFDRFQPDLVVLSPGPGSPTDFDCKATIKAARARDLPIFGVCLGLQALAEAYGGELRQLAVPMHGKPSRIRVLEPGLVFSGLGKEVTVGRYHSIFADPATLPRDFIITAESEDGTIMGIEHAKEPVAAVQFHPESIMTLGQDAGMRMIENVVVHLTRKAKTKAA
modifications: An A. tumefaciens mutant.
**Q.** For B2, which amounts of tryptophan [1] is on record?
**A.** Its amounts of tryptophan is “very high amounts of tryptophan”.

B3: S51C (protein)
chain: MVTIIQDDGAETYETKGGIQVSRKRRPTDYANAIDNYIEKLDSHRGAVFSCNYEYPGRYTRWDTAIVDPPLGISCFGRKMWIEAYNGRGEVLLDFITEKLKATPDLTLGASSTRRLDLTVNEPDRVFTEEERSKIPTVFTALRAIVDLFYSSADSAIGLFGAFGYDLAFQFDAIKLSLARPEDQRDMVLFLPDEILVVDHYSAKAWIDRYDFEKDGMTTDGKSSDITPDPFKTTDTIPPKGDHRPGEYSELVVKAKESFRRGDLFEVVPGQKFMERCESNPSAISRRLKAINPSPYSFFINLGDQEYLVGASPEMFVRVSGRRIETCPISGTIKRGDDPIADSEQILKLLNSKKDESELTMCSDVDRNDKSRVCEPGSVKVIGRRQIEMYSRLIHTVDHIEGRLRDDMDAFDGFLSHAWAVTVTGAPKLWAMRFIEGHEKSPRAWYGGAIGMVGFNGDMNTGLTLRTIRIKDGIAEVRAGATLLNDSNPQEEEAETELKASAMISAIRDAKGTNSAATKRDAAKVGTGVKILLVDHEDSFVHTLANYFRQTGATVSTVRSPVAADVFDRFQPDLVVLSPGPGSPTDFDCKATIKAARARDLPIFGVCLGLQALAEAYGGELRQLAVPMHGKPSRIRVLEPGLVFSGLGKEVTVGRYHSIFADPATLPRDFIITAESEDGTIMGIEHAKEPVAAVQFHPESIMTLGQDAGMRMIENVVVHLTRKAKTKAA
modifications: An A. tumefaciens mutant.
**Q.** Which amounts of tryptophan [1] does the source give for B3 here?
**A.** Its amounts of tryptophan is “very high amounts of tryptophan”.

B4: F298A (protein)
chain: MVTIIQDDGAETYETKGGIQVSRKRRPTDYANAIDNYIEKLDSHRGAVFSSNYEYPGRYTRWDTAIVDPPLGISCFGRKMWIEAYNGRGEVLLDFITEKLKATPDLTLGASSTRRLDLTVNEPDRVFTEEERSKIPTVFTALRAIVDLFYSSADSAIGLFGAFGYDLAFQFDAIKLSLARPEDQRDMVLFLPDEILVVDHYSAKAWIDRYDFEKDGMTTDGKSSDITPDPFKTTDTIPPKGDHRPGEYSELVVKAKESFRRGDLFEVVPGQKFMERCESNPSAISRRLKAINPSPYSAFINLGDQEYLVGASPEMFVRVSGRRIETCPISGTIKRGDDPIADSEQILKLLNSKKDESELTMCSDVDRNDKSRVCEPGSVKVIGRRQIEMYSRLIHTVDHIEGRLRDDMDAFDGFLSHAWAVTVTGAPKLWAMRFIEGHEKSPRAWYGGAIGMVGFNGDMNTGLTLRTIRIKDGIAEVRAGATLLNDSNPQEEEAETELKASAMISAIRDAKGTNSAATKRDAAKVGTGVKILLVDHEDSFVHTLANYFRQTGATVSTVRSPVAADVFDRFQPDLVVLSPGPGSPTDFDCKATIKAARARDLPIFGVCLGLQALAEAYGGELRQLAVPMHGKPSRIRVLEPGLVFSGLGKEVTVGRYHSIFADPATLPRDFIITAESEDGTIMGIEHAKEPVAAVQFHPESIMTLGQDAGMRMIENVVVHLTRKAKTKAA
modifications: An A. tumefaciens mutant.
**Q.** What does the source list for B4?
**A.** Km ([2]; pH 7.0, 200 μM chorismate, L-glutamine varied, read-out: Km^Gln): 100 µM; Km ([2]; pH 7.0, 10 mM L-glutamine, chorismate varied, read-out: Km^Cho): 9.2 µM; IC50 ([2]; inhibition by L-tryptophan, 10 mM L-glutamine, 200 μM chorismate): 5.5 µM; kcat ([2]; purified enzyme from E. coli): 0.46 s⁻¹
